Source: paper doi:10.1101/2020.08.06.234674
Where “and” joins values, the source holds several entries; their conditions need not be identical. Identical values can stand only once.

How the values were obtained:
[1] = target: SARS-CoV-2-3Q-2P full-length spike (SARS-CoV-2) (UniProt P0DTC2); test: negative stain electron microscopy
[2] = target: SARS-CoV-2-3Q-2P full-length spike (SARS-CoV-2) (UniProt P0DTC2); test: cryo-EM structure
[3] = target: SARS-CoV-2-3Q-2P full-length spike (SARS-CoV-2) (UniProt P0DTC2); test: cryo-EM structure; remark: listed apart in the source
[4] = target: SARS-CoV-2-3Q-FL spike (without 2P) (SARS-CoV-2) (UniProt P0DTC2); test: cryo-EM structure

Substance	stoichiometry N [1]	stoichiometry N [2]	stoichiometry N [3]	stoichiometry N [4]
SARS-CoV-2-3Q-2P full-length spike (from UniProt P0DTC2 14-1273) (natural protein)	3	9	3 and 6	
SARS-CoV-2-3Q-FL spike (without 2P) (from UniProt P0DTC2 14-1273) (natural protein)				3
